Test results: US6417328B1, “Trail receptors, nucleic acids encoding the same, and methods of use thereof” (Thomas Jefferson Univeristy, priority 1997, dated 2002)
Residues, ends and D or L forms follow the SMILES beside them. *: point of attachment. Cbz = O=C(OCc1ccccc1)*; CH2F = FC*

Assays:
Type in all cases: cell-based, human
[1] = system: apoptosis by TRAIL; experiment: Inhibition of apoptosis by TRAIL (FIG. 3F)
[2] = system: apoptosis by TNF-α; experiment: Inhibition of apoptosis by TNF-α (FIG. 3F)
[3] = system: DR5-induced apoptosis in MCF7 cells; experiment: Inhibition of DR5-induced apoptosis in transfected MCF7 cells
Excerpt: (§1) For apoptosis assays the mammalian double expression vector pRSC (Akporiaye E. T. et al. (1997) BioTech. 22, 68) was used, which allows for expression of lacZ under the RSV promoter and the test cDNA (DR4, DR4A, DR5, DR5A, TRAIL-R3) under the CMV promoter. CrmA, FLAME-1, caspase-8-DN (C345A) or caspase-10-DN (C358A) (Alnemnri E. S. et al. (1997) J. Biol. Chem. 272, 18542-18545) were expressed using pcDNA3 (Invitrogen).
(§2) FIG. 3 illustrates that expression of DR5 but not TRAIL-R3 induces apoptosis in human cells. MCF7 (FIG. 3A) and 293 (FIG. 3B) cells were transfected with the indicated pRSC-lacZ constructs. Thirty hours after transfection cells were stained with Pgal and examined for morphological signs of apoptosis. The graphs show the percentage of round blue apoptotic cells (mean +SD) as a function of total blue cells under each condition (≧23).
(§3) MCF7 cells were transfected with DR4 or DR5 expression constructs in the presence of z-VAD-fmk (20 μM) or co-transfected with a four-fold excess of a CrmA, caspase-8-DN, caspase-10-DN or FLAME-1 construct or an empty vector. The data are represented as in FIGS. 3A and 3B.

[4] = system: DR4-induced apoptosis in MCF7 cells; experiment: Inhibition of DR4-induced apoptosis in transfected MCF7 cells
Excerpt: as §1, §2, §3

[5] = system: MCF7 cells; experiment: Apoptosis induction by transient expression in MCF7 cells; details: pRSC-lacZ constructs, thirty hours after transfection (FIG. 3A)
Excerpt: as §1, §2

[6] = system: 293 cells; experiment: Apoptosis induction by transient expression in 293 cells; details: pRSC-lacZ constructs, thirty hours after transfection (FIG. 3B)
Excerpt: as §1, §2

[7] = system: MCF7 cells; experiment: Blocking of TRAIL-induced apoptosis in MCF7 cells; details: MCF7 cells transfected 36 h, then soluble TRAIL 250 ng/ml for 8 h (FIG. 3C)
Experimental: Cells were stained 8 hours later with propidium iodide and the nuclei were examined by fluorescence microscopy.
MCF7 cells were transfected with TRAIL-R3 or vector alone for 36 h, then treated with soluble TRAIL (250 ng/ml) for 8 h. The data are represented as in FIGS. 3A and 3B, after subtracting the background killing (12-15%) as a result of transfection.

[8] = MCF7 cells co-transfected with four-fold excess of inhibitor construct (FIG. 3D, 3E)

DR5s: alternatively spliced isoform of DR5, 350 amino acids (SEQ ID NO:6), truncated death domain
Inhibition of apoptosis by TRAIL [1]: substantially inhibits
Inhibition of apoptosis by TNF-α [2]: not

COC(=O)C[C@H](NC(=O)[C@H](C)NC(=O)[C@@H](NC(=O)OCc1ccccc1)C(C)C)C(=O)CF [z-VAD-fmk, reference compound] (Cbz-Val-Ala-Asp(OMe)-CH2F)
Inhibition of DR5-induced apoptosis ([3]; MCF7 cells transfected with DR5 construct in the presence of inhibitor 20 μM (FIG. 3D)): efficiently blocked
Inhibition of DR4-induced apoptosis ([4]; MCF7 cells transfected with DR4 construct in the presence of inhibitor 20 μM (FIG. 3D)): inhibited

B1: DR5: human TRAIL receptor protein of 411 amino acids (SEQ ID NO:2) with cytoplasmic death domain (protein, listed as Homo sapiens)
chain: MEQRGQNAPAASGARKRHGPGPREARGARPGLRVPKTLVLVVAAVLLLVSAESALITQQDLAPQQRVAPQQKRSSPSEGLCPPGHHISEDGRDCISCKYGQDYSTHWNDLLFCLRCTRCDSGEVELSPCTTTRNTVCQCEEGTFREEDSPEMCRKCRTGCPRGMVKVGDCTPWSDIECVHKESGIIIGVTVAAVVLIVAVFVCKSLLWKKVLPYLKGICSGGGGDPERVDRSSQRPGAEDNVLNEIVSILQPTQVPEQEMEVQEPAEPTGVNMLSPGESEHLLEPAEAERSQRRRLLVPANEGDPTETLRQCFDDFADLVPFDSWEPLMRKLGLMDNEIKVAKAEAAGHRDTLYTMLIKWVNKTGRDASVHTLLDALETLGERLAKQKIEDHLLSSGKFMYLEGNADSAMS
Induction of apoptosis by transient expression [5]: triggers apoptosis
Induction of apoptosis by transient expression [6]: triggers apoptosis

B2: TRAIL-R3: human TRAIL receptor protein of 299 amino acids (SEQ ID NO:4) without cytoplasmic domain (protein, listed as Homo sapiens)
chain: MQGVKERFLPLGNSGDRAPRPPDGRGRVRPRTQDGVGNHTMARIPKTLKFVVVIVAVLLPVLAYSATTARQEEVPQQTVAPQQQRHSFKGEECPAGSHRSEHTGACNPCTEGVDYTNASNNEPSCFPCTVCKSDQKHKSSCTMTRDTVCQCKEGTFRNENSPEMCRKCSRCPSGEVQVSNCTSWDDIQCVEEFGANATVETPAAEETMNTSPGTPAPAAEETMNTSPGTPAPAAEETMTTSPGTPAPAAEETMTTSPGTPAPAAEETMTTSPGTPASSHYLSCTIVGIIVLIVLLIVFV
Blocking of TRAIL-induced apoptosis by transient (ectopic) expression [7]: significantly blocked
Induction of apoptosis by transient expression [5]: incapable of inducing apoptosis
Induction of apoptosis by transient expression [6]: incapable of inducing apoptosis

B3: caspase-8-DN: dominant negative inhibitor caspase-8 (C345A), expressed using pcDNA3 (protein, UniProt Q14790 1-479, looked up, variant C345A)
chain: MDFSRNLYDIGEQLDSEDLASLKFLSLDYIPQRKQEPIKDALMLFQRLQEKRMLEESNLSFLKELLFRINRLDLLITYLNTRKEEMERELQTPGRAQISAYRVMLYQISEEVSRSELRSFKFLLQEEISKCKLDDDMNLLDIFIEMEKRVILGEGKLDILKRVCAQINKSLLKIINDYEEFSKERSSSLEGSPDEFSNGEELCGVMTISDSPREQDSESQTLDKVYQMKSKPRGYCLIINNHNFAKAREKVPKLHSIRDRNGTHLDAGALTTTFEELHFEIKPHDDCTVEQIYEILKIYQLMDHSNMDCFICCILSHGDKGIIYGTDGQEAPIYELTSQFTGLKAPSLAGKPKVFFIQACQGDNYQKGIPVETDSEEQPYLEMDLSSPQTRYIPDEADFLLGMATVNNCVSYRNPAEGTWYIQSLCQSLRERCPRGDDILTILTEVNYEVSNKDDKKNMGKQMPQPTFTLRKKLVFPSD
Inhibition of DR5-induced apoptosis [3, 8]: significantly inhibited
Inhibition of DR4-induced apoptosis [4, 8]: significantly inhibited
